This experiment addresses monkey c-Met (recombinant protein) (monkey). In words: BLI (ForteBio), antibody on AHQ sensor, monkey c-Met in solution, 1:1 model.

B1: anti-c-Met single-arm antibody 221 (antibody, human IgG1, kappa, L234A L235A)
heavy: not shown
light: EIVLTQSPGTLSLSPGERATLSCRASQSVSSSYLAWYQQKPGQAPRLLIYGPSSRATGIPDRFSGSGSGTDFTLTISSLQPADFASYYCQQSYITPYTFGQGTKVEIKRTVAAPSVFIFPPSDEQLKSGTASVVCLLNNFYPREAKVQWKVDNALQSGNSQESVTEQDSKDSTYSLSSTLTLSKADYEKHKVYACEVTHQGLSSPVTKSFNRGEC
chain: not shown
notes: made in Expi-CHO
In general, Kd refers to the free concentration of one partner at which half of the binding sites on the other are occupied at equilibrium, for simple one-to-one binding. As usually defined, the koff is a measure of how fast the partners let go of each other. The kon is the rate constant with which the complex forms. Turning to B1, the Kd is 63.8 nM, the koff was 0.00192 s⁻¹ and the kon turned out to be 30100 M⁻¹ s⁻¹.

B2: anti-c-Met single-arm antibody 22 (antibody, human IgG1, kappa, L234A L235A)
heavy: not shown
light: DIVMTQSPSSVSASVGDRVTITCRASQGISSWLAWYQQKPGKAPKLLIYAASSLQSGVPSKFSGSGSGTEFTLTISSLQPEDFATYFCQQAYGFPLTFGGGTKVEIKRTVAAPSVFIFPPSDEQLKSGTASVVCLLNNFYPREAKVQWKVDNALQSGNSQESVTEQDSKDSTYSLSSTLTLSKADYEKHKVYACEVTHQGLSSPVTKSFNRGEC
chain: not shown
notes: made in Expi-CHO
Regarding B2, the equilibrium dissociation constant (Kd) was found to be 19 nM, the off-rate (koff) came to 0.00259 s⁻¹ and the kon is 136000 M⁻¹ s⁻¹.

B3: anti-c-Met single-arm antibody 187 (antibody, human IgG1, kappa, L234A L235A)
heavy: not shown
light: DIVMTQSPSSVSASVGDRVTITCRASQGISSWLAWYQQKPGKAPNLLIYAASNLPSGVPSRFSGSGSGTVFTLTISSLQPEDFATYYCQQSNSFPLTFGGGTKVEIKRTVAAPSVFIFPPSDEQLKSGTASVVCLLNNFYPREAKVQWKVDNALQSGNSQESVTEQDSKDSTYSLSSTLTLSKADYEKHKVYACEVTHQGLSSPVTKSFNRGEC
chain: not shown
notes: made in Expi-CHO
As for B3, the dissociation constant (Kd) turned out to be 2.92 nM, the off-rate (koff) amounted to 0.000947 s⁻¹ and the on-rate constant (kon) was 324000 M⁻¹ s⁻¹.

B4: anti-c-Met single-arm antibody 136 (antibody, human IgG1, kappa, L234A L235A)
heavy: not shown
light: DIVMTQSPSSVSASVGDRVTITCRASQGISSWLAWYQQKPGKAPKLLIYAVSSLQSGVPSRFSGSGSGTDFTLTISSLQPEDFATYFCQQANSFPLTFGGGTKVEIKRTVAAPSVFIFPPSDEQLKSGTASVVCLLNNFYPREAKVQWKVDNALQSGNSQESVTEQDSKDSTYSLSSTLTLSKADYEKHKVYACEVTHQGLSSPVTKSFNRGEC
chain: not shown
notes: made in Expi-CHO
As for B4, the Kd came out at 1.16 nM, the dissociation rate constant (koff) turned out to be 0.000426 s⁻¹ and the association rate constant (kon) was 369000 M⁻¹ s⁻¹.

B5: anti-c-Met single-arm antibody 74 (antibody, human IgG1, kappa, L234A L235A)
heavy: not shown
light: DIVMTQSPSSVSASVGDRVTITCRASQGINSWLAWYQQKPGKAPNLLIYAASSLQSGVPSRFSGRGSGTDFSLTISSLHPEDFATYYCQQAKGFPLTFGGGTKVEIKRTVAAPSVFIFPPSDEQLKSGTASVVCLLNNFYPREAKVQWKVDNALQSGNSQESVTEQDSKDSTYSLSSTLTLSKADYEKHKVYACEVTHQGLSSPVTKSFNRGEC
chain: not shown
notes: made in Expi-CHO
Take B5: the Kd was found to be 9.7 nM, the koff worked out at 0.0026 s⁻¹ and the on-rate (kon) came to 269000 M⁻¹ s⁻¹.

B6: anti-c-Met single-arm antibody 223 (antibody, human IgG1, kappa, L234A L235A)
heavy: not shown
light: DIQLTQSPSSLSASVGDRVTITCRASQSIITYLNWYQQKPGKAPKLLIYAASSLQSGVPSRFSGSGSGTDFTLNISSLQPEDFATYYCQQANSLPYTFGQGTKVEIKRTVAAPSVFIFPPSDEQLKSGTASVVCLLNNFYPREAKVQWKVDNALQSGNSQESVTEQDSKDSTYSLSSTLTLSKADYEKHKVYACEVTHQGLSSPVTKSFNRGEC
chain: not shown
notes: made in Expi-CHO
B6: the Kd was found to be 16.2 nM, the off-rate constant (koff) turned out to be 0.00109 s⁻¹ and the kon was 67300 M⁻¹ s⁻¹.

B7: anti-c-Met single-arm antibody 23 (antibody, human IgG1, kappa, L234A L235A)
heavy: not shown
light: DIVMTQSPSSLSASVGDRVTITCRASQSFSDYLNWYRQKPGKAPKLLLFAASSLQSGVPSRFSGSGSGTDFTLTISSLQPEDFATYYCQQSYSPPYTFGQGTKLEIKRTVAAPSVFIFPPSDEQLKSGTASVVCLLNNFYPREAKVQWKVDNALQSGNSQESVTEQDSKDSTYSLSSTLTLSKADYEKHKVYACEVTHQGLSSPVTKSFNRGEC
chain: not shown
notes: made in Expi-CHO
Take B7: the Kd was determined as 26.5 nM, the off-rate (koff) amounted to 0.00151 s⁻¹ and the association rate constant (kon) amounted to 56900 M⁻¹ s⁻¹.
